In patent US20200339648A1 (University of Washington, published 2020):

Assays:
[1] = target: T1, human IL-2 receptor βγc heterodimer (hIL-2Rβγc), soluble (human, UniProt P14784 27-240; P31785 23-254, biotin on the C-terminal biotin acceptor peptide); assay: SPR, equilibrium titration; IL-2Rγ on streptavidin chip, saturating IL-2Rβ in solution
T1 construct: also called HsIL-2Rβγc; hIL-2Rβνc
T1 sequence 1: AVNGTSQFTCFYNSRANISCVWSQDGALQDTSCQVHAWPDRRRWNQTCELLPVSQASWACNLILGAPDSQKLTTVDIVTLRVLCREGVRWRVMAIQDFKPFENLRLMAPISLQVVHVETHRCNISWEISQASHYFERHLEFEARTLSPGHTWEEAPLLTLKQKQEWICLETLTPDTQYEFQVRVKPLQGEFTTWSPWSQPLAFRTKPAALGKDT
T1 sequence 2: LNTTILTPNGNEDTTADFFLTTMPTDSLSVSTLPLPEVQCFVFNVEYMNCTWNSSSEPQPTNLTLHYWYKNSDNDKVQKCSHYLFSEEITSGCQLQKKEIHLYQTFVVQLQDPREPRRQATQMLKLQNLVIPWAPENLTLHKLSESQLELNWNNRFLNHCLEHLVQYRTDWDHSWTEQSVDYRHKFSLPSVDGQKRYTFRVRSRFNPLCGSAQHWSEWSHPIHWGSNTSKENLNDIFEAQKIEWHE
Procedure: (§1) Less than 100 response units (RU) of each ligand was immobilized to minimize mass transfer effects. […] Surface regeneration for all interactions was conducted using 15 s exposure to 1 M MgCl2 in 10 mM sodium acetate pH 5.5. SPR experiments were carried out in HBS-P+ buffer (GE Healthcare) supplemented with 0.2% bovine serum albumin (BSA) at 25° C. and all binding studies were performed at a flow rate of […] to prevent analyte rebinding. Data was visualized and processed using the Biacore T100 evaluation software version 2.0 (GE Healthcare). Equilibrium titration curve fitting and equilibrium binding dissociation (KD) value determination was implemented using GraphPad Prism assuming all binding interactions to be first order. Biolayer interferometry: binding data were collected in a Octet RED96 (ForteBio, Menlo Park, Calif.) and processed using the instrument's integrated software using a 1:1 binding model. […] Analyte proteins were diluted from concentrated stocks into binding buffer. After baseline measurement in binding buffer alone, the binding kinetics were monitored by dipping the biosensors in wells containing 100 nM of the designed protein (association) and then dipping the sensors back into baseline wells (dissociation).

[2] = target: T2, human IL-2Rβγc on human cells (YT-1 NK cells) (human, UniProt P14784 27-551; P31785 23-369); assay: cell-based or functional assay
T2 sequence (looked up) 1: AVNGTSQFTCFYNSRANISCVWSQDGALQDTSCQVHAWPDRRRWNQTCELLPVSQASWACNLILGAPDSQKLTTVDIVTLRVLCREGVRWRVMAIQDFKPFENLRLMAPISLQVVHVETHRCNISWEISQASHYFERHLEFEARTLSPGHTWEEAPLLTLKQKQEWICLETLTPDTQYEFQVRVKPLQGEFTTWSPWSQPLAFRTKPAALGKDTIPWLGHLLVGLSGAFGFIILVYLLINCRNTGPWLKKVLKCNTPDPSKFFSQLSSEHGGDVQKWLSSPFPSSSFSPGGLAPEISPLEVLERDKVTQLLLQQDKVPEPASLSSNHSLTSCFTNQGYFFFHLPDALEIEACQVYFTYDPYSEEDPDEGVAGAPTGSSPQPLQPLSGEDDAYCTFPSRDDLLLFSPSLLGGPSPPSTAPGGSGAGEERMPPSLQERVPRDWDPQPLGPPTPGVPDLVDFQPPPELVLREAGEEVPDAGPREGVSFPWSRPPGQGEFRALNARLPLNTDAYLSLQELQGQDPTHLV
T2 sequence (looked up) 2: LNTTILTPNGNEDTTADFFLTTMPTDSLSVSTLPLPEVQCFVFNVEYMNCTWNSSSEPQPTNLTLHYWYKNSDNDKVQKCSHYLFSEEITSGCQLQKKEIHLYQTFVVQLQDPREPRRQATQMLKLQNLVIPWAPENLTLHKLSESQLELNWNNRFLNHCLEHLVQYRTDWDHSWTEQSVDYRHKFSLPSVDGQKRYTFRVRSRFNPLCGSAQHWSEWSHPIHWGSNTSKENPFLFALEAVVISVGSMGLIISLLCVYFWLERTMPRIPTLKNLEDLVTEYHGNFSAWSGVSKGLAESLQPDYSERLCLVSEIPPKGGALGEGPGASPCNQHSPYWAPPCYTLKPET

[3] = target: T3, human IL-2 receptor β subunit (hIL-2Rβ) (human, UniProt P14784 27-240, biotin on the C-terminal biotin acceptor peptide); assay: SPR, equilibrium titration; biotinylated IL-2Rβ on streptavidin chip
T3 construct: Biotinylated and immobilised on streptavidin; also called HsIL-2Rβ; human IL-2Rβ
T3 sequence: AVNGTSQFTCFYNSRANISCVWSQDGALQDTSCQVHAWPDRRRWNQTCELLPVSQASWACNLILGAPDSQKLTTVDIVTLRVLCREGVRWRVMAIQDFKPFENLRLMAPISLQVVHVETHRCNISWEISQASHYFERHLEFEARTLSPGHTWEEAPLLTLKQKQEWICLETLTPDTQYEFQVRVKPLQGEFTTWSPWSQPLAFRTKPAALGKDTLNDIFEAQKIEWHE
Procedure: as §1

[4] = target: T4, IL-2Rβγc (species not stated); assay: biolayer interferometry
T4 chain 1: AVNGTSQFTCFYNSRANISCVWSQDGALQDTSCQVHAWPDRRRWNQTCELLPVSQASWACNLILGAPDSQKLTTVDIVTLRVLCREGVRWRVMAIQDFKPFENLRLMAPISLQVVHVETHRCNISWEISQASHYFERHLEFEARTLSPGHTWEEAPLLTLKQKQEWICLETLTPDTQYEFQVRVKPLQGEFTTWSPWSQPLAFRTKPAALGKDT
T4 chain 2: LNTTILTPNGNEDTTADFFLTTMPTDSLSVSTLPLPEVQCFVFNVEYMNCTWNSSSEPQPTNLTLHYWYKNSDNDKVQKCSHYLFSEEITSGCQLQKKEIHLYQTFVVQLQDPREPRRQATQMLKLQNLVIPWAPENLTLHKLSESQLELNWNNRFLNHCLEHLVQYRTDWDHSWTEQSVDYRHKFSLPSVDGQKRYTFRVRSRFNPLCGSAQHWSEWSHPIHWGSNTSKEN

[5] = target: T5, mouse IL-2 receptor βγc heterodimer (mIL-2Rβγc), soluble (mouse, UniProt P16297 27-240; P34902 23-263, biotin on the C-terminal biotin acceptor peptide); assay: affinity maturation by yeast display for human and mouse IL-2Rβνc
T5 construct: extracellular domain; also called MmIL-2Rβγc; mIL-2Rβνc
T5 sequence 1: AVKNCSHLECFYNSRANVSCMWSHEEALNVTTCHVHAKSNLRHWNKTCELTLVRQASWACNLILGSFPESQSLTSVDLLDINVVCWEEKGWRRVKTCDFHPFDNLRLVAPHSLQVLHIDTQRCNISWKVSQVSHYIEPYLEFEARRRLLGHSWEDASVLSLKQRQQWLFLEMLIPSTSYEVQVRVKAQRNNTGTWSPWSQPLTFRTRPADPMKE
T5 sequence 2: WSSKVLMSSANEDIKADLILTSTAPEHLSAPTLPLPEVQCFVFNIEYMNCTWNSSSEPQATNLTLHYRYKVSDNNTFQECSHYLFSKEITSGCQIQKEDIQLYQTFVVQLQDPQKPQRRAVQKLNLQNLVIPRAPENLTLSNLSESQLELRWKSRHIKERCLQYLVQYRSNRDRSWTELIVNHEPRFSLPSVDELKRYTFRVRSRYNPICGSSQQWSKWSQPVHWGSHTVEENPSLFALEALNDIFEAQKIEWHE
Procedure: (§2) The vector was linearized by 100 fold overdigestion by NdeI and XhoI (New England Biolabs) and then purified by gel extraction (Qiagen). The genes included 50 bases of overlap with the vector on both the 5′ and 3′ ends such that homologous recombination would place the genes in frame between the AGA2 gene and the myc tag on the vector. Yeast were grown in C-Trp-Ura media prior to induction in SGCAA media as previously described. […] After approximately 30 minutes, cells were washed again in chilled buffer, and then incubated on ice for 5 minutes with FITC-conjugated anti-c-Myc antibody (1 uL per 3×10⁶ cells) and streptavidin-phycoerythrin (1 uL per 100 uL volume of yeast). Yeast were then washed and counted by flow cytometry (Accuri C6) or sorted by FACS (Sony SH800).

[6] = target: T1, human IL-2 receptor βγc heterodimer …; assay: as above
Procedure: as §2

[7] = target: T6, fluorescently labeled chimeric hIL-2Rβγc (human, UniProt P14784 27-240; P31785 23-254); assay: yeast display, flow cytometry
T6 construct: How beta and gamma are joined and labeled is not described; also called fluorescently-tagged beta-gamma chimeric IL-2 receptor; chimeric ILRβγc
T6 sequence (looked up) 1: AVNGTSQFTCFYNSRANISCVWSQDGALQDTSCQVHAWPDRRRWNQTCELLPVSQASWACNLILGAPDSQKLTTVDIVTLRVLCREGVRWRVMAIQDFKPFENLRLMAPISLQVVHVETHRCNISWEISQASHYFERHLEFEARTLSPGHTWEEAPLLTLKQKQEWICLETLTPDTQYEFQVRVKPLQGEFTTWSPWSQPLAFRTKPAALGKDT
T6 sequence (looked up) 2: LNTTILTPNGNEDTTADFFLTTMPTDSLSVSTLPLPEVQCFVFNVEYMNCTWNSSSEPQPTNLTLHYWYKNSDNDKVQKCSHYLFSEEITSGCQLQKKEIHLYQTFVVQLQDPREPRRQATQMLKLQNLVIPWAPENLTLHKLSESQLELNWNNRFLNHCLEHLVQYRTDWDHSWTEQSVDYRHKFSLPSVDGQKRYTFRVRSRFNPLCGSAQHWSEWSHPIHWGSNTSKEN

B1: G1_neo2_40 (designed binder)
chain: STKKLQLQAEHALLDAQMMLNRSPEPNEKLNRIITTMQSWISTGKIDLDGAKELAKEVEELRQEAEKRGIDVRDLASNLKVILLELA
notes: also called G1_ne02_40
For B1, which Kd [1] is on record?
Its Kd is 260 nM.

What about the “EC50 (CD25-) pSTAT5p, human NK (YT, CD25-) cells” value (shortened to “EC50 (CD25-) pSTAT5p, human NK”) [2] of the same binder?
The value was 0.14 nM.

What about the Kd [3] of the same binder?
Its Kd is 1460 nM.

B2: G1_neo2_41 (designed binder)
chain: STKKLQLQAEHALLDAQMMLNRSPEPNEKLNRIITTMQSCISTGKCDLDGAKELAKEVEELRQEAEKRGIDVRDLASNLKVILLELA
notes: Single-disulfide stapled variation; In yeast display between Aga2 and a myc tag; also called G1_ne02_41
How did the Kd [1] turn out when B2 was run?
The Kd was 187 nM.

What about the “EC50 (CD25-) pSTAT5p, human NK” value [2] of the same binder?
Its value is 70 pM.

What about the Kd [3] of the same binder?
The Kd was 721 nM.

B3: Neoleukin-2/15 terminal disulfide variant (CNSN and NFQC added at the termini) (designed binder)
chain: CNSNKKKIQLHAEHALYDALMILNIVKTNSPPAEEKLEDYAFNFELILEEIARLFESGDQKDEAEKAKRMKEWMKRIKTTASEDEQEEMANAIITILQSWIFNFQC
modifications: disulfide bond between the N-terminal and the C-terminal cysteine
notes: also called external disulfide-staple
For B3, which Kd [4] is on record?
The Kd was roughly 1.8 nM.

B4: G2_neo2_40_1F_seq27_S18 (designed binder)
chain: TNKEAQLHAEFALYDALMLLNLSSESNERLNRIITWLQSIIFYETYDPDMVKEAVKLADEIEDEMRKRKIDTEDYVVNLRLILQELA
Does B4 bind [5]?
Result: binds

Does B4 bind [6]?
Result: binds

B5: G2_neo2_40_1F_seq27_S22 (designed binder)
chain: TKKDAELLAEFALYDALMLLNLSSESNERLNEIITWLQSIIFYGTYDPDMVKEAVKLADEIEDEMRKRGIDTEDYVSNLRLILQELA
Which results are given for B5?
binding result [5]: binds; binding result [6]: binds

B6: G2_neo2_40_1F_seq36_S12 (designed binder)
chain: PKKKIQLLAEHALFDLLMILNIVKTNSQNAEEKLEDYAYNAGVILEEIARLFESGDQKDEAEKAKRMKEWMKRIKDTASEDEQEEMANEIITILQSWNFS
Does B6 bind [5]?
Result: binds

Does B6 bind [6]?
Result: binds

B7: G1_neo2_43 (designed binder)
chain: STKKIQLQLEHALLDVQMALNRSPEPNESLNRMITWLQSCISTGKCDLDNAQEMAKEAEKIRKEMEKRGIDVRDLISNIIVILLELS
notes: Single-disulfide stapled variation; In yeast display between Aga2 and a myc tag; also called G1_ne02_43
With B7 as the binder, how does the Kd [1] read?
The Kd was 533 nM.

And the “EC50 (CD25-) pSTAT5p, human NK” value [2]?
The value was 0.21 nM.

And the Kd [3]?
The Kd was 2860 nM.

B8: G1_neo2_44 (designed binder)
chain: STKKIQLQLEHALLDVQMALNRSPEPNESLNRMITWLQSWISTGKIDLDNAQEMCKEAEKIRKEMEKRGIDVRDLISNICVILLELS
Does B8 bind [7]?
Result: no binding (tested: 2 nM)

B9: G1_neo2_35 (designed binder)
chain: STKKWQLQAEHALLDWQMALNKSPEPNENLNRAITAAQSWISTGKIDCDKAEDIRRNSDQARREAEKRGIDVRDLISNAQVILLEAC
Does B9 bind [7]?
Result: no binding (tested: 2 nM)

B10: G2_neo2_40_1F_seq29_S6 (designed binder)
chain: EDYYSNLKLILEELAREMERNGLSDKAEEWRQWKKIVERIRQIRSNNSDLNEAKELLNRLITYIQSQIFEVLHGVGETDQEKKEESWKKWDLLLEHALLDVLMLLND
Does B10 bind [5]?
Result: binds

Does B10 bind [6]?
Result: binds

B11: G2_neo2_40_1F_seq29_S7 (designed binder)
chain: EDYYSNLKVILEELAREMERNGLSDKAEEWRQWKKIVERIRQIRSNNSDLNEAKELLNELITYIQSQIFEVIEREGETDQEKKEESWKKWELHLEHALLDVLMLLND
Does B11 bind [5]?
Result: binds

Does B11 bind [6]?
Result: binds

B12: Neoleukin-2/15 internal disulfide variant (disulfide between residues 38 and 75) (designed binder)
chain: PKKKIQLHAEHALYDALMILNIVKTNSPPAEEKLEDYCFNFELILEEIARLFESGDQKDEAEKAKRMKEWMKRICTTASEDEQEEMANAIITILQSWIFS
modifications: disulfide bond between the cysteines at residues 38 and 75
notes: also called internal disulfide-staple
For B12, which Kd [4] is on record?
The Kd was roughly 1.3 nM.
